Assay results taken from patent US20120021999A1 (published 2012).
Ends that are not written are not given here. * marks the point of attachment. Biotin = O=C1N[C@H]2[C@H](CS[C@H]2CCCCC(=O)*)N1

What was measured:
[1] = target: T1, PP2Ac from IL-2-stimulated TS1αβ cellular extracts (mouse, UniProt P63330 1-309); assay: pull-down of biotinylated peptide on streptavidin beads from TS1αβ cell extracts, anti-PP2Ac immunoblot
T1 construct: Endogenous protein in a cell lysate, detected by immunoblot with anti-PP2Ac antibody
Protocol: Control streptavidin-sepharose alone or conjugated to DPT-C9, DPT-C9r, DPT-sh1 or C9 peptides were incubated with IL-2-stimulated cellular extracts form TS1αβ cells (10⁷ cells/point). Identification of unbound proteins in lysates or bound proteins in pull-down experiments was performed by immunoblotting using antibodies against PP2Ac or PP1c.
Biotinylated peptides were preincubated 2 h at 0-100 μM (in final concentration with lysate) at room temperature with 30 μl of streptavidin-coated immunomagnetic beads (Calbiochem, San Diego Calif.). During this time, 10⁷ exponentially growing TS1αβ cells were first washed twice with PBS and then lysed 10 minutes on ice in 400 μl of lysis buffer (50 mM Tris pH7.4, 150 mM NaCl, 20% glycerol, 1% NP-40, 10 mM EDTA, 1 mM PhenylMethylSulfonyl Fluoride, 10 mM NaF, 1 mM orthovanadate, “complete, EDTA-free” protease inhibitor cocktail from Roche).
Lysates were clarified at 13000 g for 10 minutes at 4° C. and were incubated with biotinylated peptides associated with the streptavidin-coated immunomagnetic beads 2 h at 4° C. Biotinylated peptides were pulled down with streptavidin beads and washed two times in 700 μl of lysis buffer on ice. Bound proteins and unbound lysates were then analyzed by SDS-PAGE and Western Blotting using PP1c or PP2Ac antibodies.

[2] = target: T2, caspase-9 from IL-2-stimulated TS1αβ cellular extracts (mouse, UniProt Q8C3Q9 1-454, limits assumed); assay: pull-down of biotinylated peptide on streptavidin beads from TS1αβ cell extracts, immunoblot
T2 construct: Endogenous protein in a cell lysate
T2 sequence (looked up): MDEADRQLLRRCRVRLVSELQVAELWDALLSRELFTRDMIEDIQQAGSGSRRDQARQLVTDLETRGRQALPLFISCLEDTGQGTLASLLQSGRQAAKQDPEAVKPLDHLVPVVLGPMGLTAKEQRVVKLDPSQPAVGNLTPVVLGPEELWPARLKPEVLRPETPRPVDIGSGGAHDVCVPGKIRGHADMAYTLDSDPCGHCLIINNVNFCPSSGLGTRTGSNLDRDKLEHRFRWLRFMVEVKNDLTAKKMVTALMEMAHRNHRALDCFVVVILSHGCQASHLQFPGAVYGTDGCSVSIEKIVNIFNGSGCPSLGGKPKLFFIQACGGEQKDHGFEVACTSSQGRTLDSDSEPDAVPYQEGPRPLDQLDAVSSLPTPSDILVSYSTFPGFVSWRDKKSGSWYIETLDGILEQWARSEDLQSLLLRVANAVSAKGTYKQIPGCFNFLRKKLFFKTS

T1 sequence (P63330 whole entry): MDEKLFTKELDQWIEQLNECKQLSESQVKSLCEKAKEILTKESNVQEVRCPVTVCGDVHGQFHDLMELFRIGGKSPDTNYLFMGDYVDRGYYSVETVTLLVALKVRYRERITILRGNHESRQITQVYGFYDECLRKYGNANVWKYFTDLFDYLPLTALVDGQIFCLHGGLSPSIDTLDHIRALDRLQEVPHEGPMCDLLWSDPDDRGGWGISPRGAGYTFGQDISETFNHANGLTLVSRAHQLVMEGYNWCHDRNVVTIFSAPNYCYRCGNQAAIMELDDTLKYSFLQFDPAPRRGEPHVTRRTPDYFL

B1: DPT-C9r (peptide)
peptide: Biotin-VKKKKIKREIKILDESRAWQELIGDLTEIY
notes: Biotinylated, held on streptavidin beads in the pull-down
binding result [1]: no binding

B2: DPT-C9 (peptide)
peptide: Biotin-VKKKKIKREIKIYIETLDGILEQWARSEDL
notes: as for B1
binding result [2]: no binding

B3: C9 (peptide)
peptide: Biotin-YIETLDGILEQWARSEDL
notes: Synthetic NH2-biotinylated peptide, held on streptavidin beads in the pull-down
binding result [2]: no binding

B4: DPT-sh1 (peptide)
peptide: Biotin-VKKKKIKREIKI
notes: Penetrating shuttle peptide; origin printed as CK2alpha (human); Biotinylated, held on streptavidin beads in the pull-down; also called shuttle
binding result [1]: no binding
